According to patent publication US20180282402A1:
Numbering of substitutions follows the chain as printed.

B1: KL31-241 (antibody, V domains shown)
VH: QVQLVQSGAEVKKPGASVKVSCKASGYTFTDYCIGWIRQAPGQGLEWMGDICPGDAYTNDNEKFKDRATMTADTSTSTAYMELSSLRSEDTAVYYCARGEEQLGLRNAMDYWGQGTSVTVSS
VL: DIVMTQSPDSLAVSLGERATINCQSQSVSTSTYNYMHWYQQKPGQPPKLLIKYASNLESGVPDRFSGSGSGTDFTLTISSLQAEDVATYYCQHSWEIPWTFGGGTKLEIK
B2: KL31-532 (antibody, V domains shown)
VH: B1 VH with A56T, S117L
VL: B1 VL with Q92G, W95Y, L107V
B3: AB04-439 (antibody, V domains shown)
VH: QVQLVESGGGLVKPGGSLRLSCAASGFTFSDYYMTWIRQAPGKGLEWVSYISGSFRYTNYADSVKGRFTISRDNAKNSLYLQMNSLRDEDTAVYFCARYVYQVVAIGDLWGQGTLVTVSS
VL: DIQMTQSPSSVSASVGDRVTITCRASQGISSWLAWYQQKPGRAPKLLIFAASSLQSGVPSRFSGSGSGTHFTLTISSLQPEDFATYYCQQAESFPYTFGQGTKLEIK
B4: AB13-433 (antibody, V domains shown)
VH: QVQLVESGGGLVKPGGSLRLSCAASGFTFSDYYMSWIRQAPGKGLEWVSYISDSSTYTNYTDSVRGRFTISRDNAKNSLYLQMNSLRAEDTAVYYCARYLYQVIAVADSWGQGTLVTVSS
VL: B3 VL with Y36F, R42K, F49Y, A50V, S53N, Q55E, H70D, E92N
B5: AB13-288 (IgG4-2 kappa) (antibody, V domains shown)
VH: B4 VH with S54K, T56R, N59K, S63K, V106I, S109A
VL: B3 VL with Y36F, R42K, A50V, S53N, Q55E, H70D
B6: AB13-112 (IgG1m(za) kappa) (antibody, V domains shown)
VH: B4 VH with S54K, T56R, N59K, S63K, V106I, S109A
VL: B3 VL with Y36F, R42K, A50V, S53N, Q55E, H70D
B7: AB13-112 (IgG4 kappa) (antibody, V domains shown)
VH: B4 VH with S54K, T56R, N59K, S63K, V106I, S109A
VL: B3 VL with Y36F, R42K, A50V, S53N, Q55E, H70D
B8: AB13-288 (IgG1m(zf) kappa) (antibody, V domains shown)
VH: B4 VH with S54K, T56R, N59K, S63K, V106I, S109A
VL: B3 VL with Y36F, R42K, A50V, S53N, Q55E, H70D

Target: Cyno HARS (cynomolgus monkey (Macaca fascicularis))
Test: SPR (ProteOn); HRS protein immobilized, antibody as analyte

| Binder | Kd [nM] |
| --- | --- |
| B1 | 1.2 |
| B2 | 0.056 |
| B3 | 0.075 |
| B4 | 0.24 |
| B5 | 0.028 |
| B6 | < 0.001 |
| B7 | < 0.001 |
| B8 | 0.002 |
